Results taken from patent publication US20200024330A1.

Experiments:
Assay in all cases: cell-based or functional assay
[1] = target: HIV-1 Env of isolate MGRM-G-017 (HIV-1)
[2] = target: HIV-1 Env of isolate MGRM-AE-005 (HIV-1)
[3] = target: HIV-1 Env of isolate MGRM-G-011 (HIV-1)
[4] = target: HIV-1 Env of isolate MGRM-G-001 (HIV-1)
[5] = target: HIV-1 Env of isolate MGRM-AE-007 (HIV-1)
[6] = target: HIV-1 Env of isolate MGRM-G-014 (HIV-1)
[7] = target: HIV-1 Env of isolate MGRM-C-028 (pseudovirus) (HIV-1 isolate MGRM-C-028, subtype C)
[8] = target: HIV-1 Env of isolate MGRM-G-006 (HIV-1)
[9] = target: HIV-1 Env of isolate MGRM-G-004 (HIV-1)
[10] = target: HIV-1 Env of isolate MGRM-AE-004 (HIV-1)
[11] = target: HIV-1 Env of isolate MGRM-G-016 (HIV-1)
[12] = target: HIV-1 92TH021 envelope glycoprotein (Env) on pseudovirus (HIV-1)
[13] = target: HIV-1 Env of isolate MGRM-G-013 (HIV-1)
[14] = target: aMLV envelope (negative control pseudovirus)
[15] = target: HIV-1 Env of isolate MGRM-G-027 (HIV-1)
[16] = target: HIV-1 NL43 envelope glycoprotein (Env) on pseudovirus (HIV-1)
[17] = target: HIV-1 92UG024 envelope glycoprotein (Env) on pseudovirus (HIV-1)
[18] = target: HIV-1 Env of isolate MGRM-G-009 (HIV-1)
[19] = target: HIV-1 Env of isolate MGRM-AE-008 (HIV-1)
[20] = target: HIV-1 Env of isolate MGRM-G-019 (HIV-1)
[21] = target: HIV-1 Env of isolate MGRM-G-015 (HIV-1)
[22] = target: HIV-1 Env of isolate MGRM-AE-006 (HIV-1)
[23] = target: HIV-1 92RW020 envelope glycoprotein (Env) on pseudovirus (HIV-1)
[24] = target: HIV-1 92BR020 envelope glycoprotein (Env) on pseudovirus (HIV-1)
[25] = target: HIV-1 Env of isolate MGRM-G-025 (HIV-1)

Substance 4838_L06 (PGT-121) (antibody) has an IC50, pseudovirus neutralization [1] of 0.004 µg/mL, a neutralization IC50 [2] greater than 50 µg/mL and an IC50, pseudovirus neutralization [3] of 3.17 µg/mL. For the same substance, the IC50, pseudovirus neutralization [4] was 0.004 µg/mL, the neutralization IC50 [5] was greater than 50 µg/mL and the IC50, pseudovirus neutralization [6] was 0.009 µg/mL. For the same substance, the IC50 (µg/mL) neutralization [7] was 0.472 µg/mL, the IC50, pseudovirus neutralization [8] was greater than 50 µg/mL and the IC50, pseudovirus neutralization [9] was 0.115 µg/mL. The neutralization IC50 [10] was greater than 50 µg/mL, the IC50, pseudovirus neutralization [11] was greater than 50 µg/mL and the IC50 (ug/ml), neutralizing activity [12] was greater than 10 µg/mL. The IC50, pseudovirus neutralization [13] was 3.99 µg/mL, the IC50, pseudovirus neutralization [14] was greater than 50 µg/mL and the IC50, pseudovirus neutralization [15] was 0.124 µg/mL. It also gave an IC50 (ug/ml), neutralizing activity [16] greater than 10 µg/mL, an IC50 (ug/ml), neutralizing activity [17] greater than 10 µg/mL and an IC50, pseudovirus neutralization [18] of 0.02 µg/mL. The neutralization IC50 [19] was greater than 50 µg/mL, the IC50, pseudovirus neutralization [20] was 0.011 µg/mL and the IC50, pseudovirus neutralization [21] was greater than 50 µg/mL. It also gave a neutralization IC50 [22] greater than 50 µg/mL.

4858_P08 (PGT-123) (antibody) gave an IC50, pseudovirus neutralization [1] of 0.026 µg/mL, a neutralization IC50 [2] greater than 50 µg/mL and an IC50, pseudovirus neutralization [3] of 14.9 µg/mL. For the same substance, the IC50, pseudovirus neutralization [4] was 0.009 µg/mL, the neutralization IC50 [5] was greater than 50 µg/mL and the IC50, pseudovirus neutralization [6] was 0.005 µg/mL. For the same substance, the IC50 (µg/mL) neutralization [7] was 0.402 µg/mL, the IC50, pseudovirus neutralization [8] was greater than 50 µg/mL and the IC50, pseudovirus neutralization [9] was 0.181 µg/mL. The IC50 (ug/ml), neutralizing activity [23] was 0.0038 µg/mL, the IC50, pseudovirus neutralization [23] was 0.0038 µg/mL and the IC80, pseudovirus neutralization [23] was 0.0106 µg/mL. It also gave an IC90 (pseudovirus neutralization) [23] of 0.0194 µg/mL, an IC95, pseudovirus neutralization [23] of 0.0343 µg/mL and a neutralization IC50 [10] greater than 50 µg/mL. For the same substance, the IC50, pseudovirus neutralization [11] was greater than 50 µg/mL, the IC50 (ug/ml), neutralizing activity [24] was 0.013 µg/mL and the IC50, pseudovirus neutralization [24] was 0.013 µg/mL. For the same substance, the IC80, pseudovirus neutralization [24] was 0.039 µg/mL, the IC90 (pseudovirus neutralization) [24] was 0.0741 µg/mL and the IC95, pseudovirus neutralization [24] was 0.134 µg/mL. For the same substance, the IC50 (ug/ml), neutralizing activity [12] was greater than 10 µg/mL, the IC50, pseudovirus neutralization [12] was greater than 10 µg/mL and the IC80, pseudovirus neutralization [12] was greater than 10 µg/mL. For the same substance, the IC90 (pseudovirus neutralization) [12] was greater than 10 µg/mL, the IC95, pseudovirus neutralization [12] was greater than 10 µg/mL and the IC50, pseudovirus neutralization [13] was 3.97 µg/mL. For the same substance, the IC50, pseudovirus neutralization [14] was greater than 50 µg/mL, the IC50, pseudovirus neutralization [15] was 0.182 µg/mL and the IC50 (ug/ml), neutralizing activity [16] was greater than 10 µg/mL. It also gave an IC50, pseudovirus neutralization [16] greater than 10 µg/mL, an IC80, pseudovirus neutralization [16] greater than 10 µg/mL and an IC90 (pseudovirus neutralization) [16] greater than 10 µg/mL. It also gave an IC95, pseudovirus neutralization [16] greater than 10 µg/mL, an IC50 (ug/ml), neutralizing activity [17] greater than 10 µg/mL and an IC50, pseudovirus neutralization [17] greater than 10 µg/mL. The IC80, pseudovirus neutralization [17] was greater than 10 µg/mL, the IC90 (pseudovirus neutralization) [17] was greater than 10 µg/mL and the IC95, pseudovirus neutralization [17] was greater than 10 µg/mL. The IC50, pseudovirus neutralization [18] was 33.5 µg/mL, the neutralization IC50 [19] was greater than 50 µg/mL and the IC50, pseudovirus neutralization [20] was 0.008 µg/mL. It also gave an IC50, pseudovirus neutralization [21] greater than 50 µg/mL, a neutralization IC50 [22] greater than 50 µg/mL and an IC50, pseudovirus neutralization [25] of 0.046 µg/mL.
